In experiment [1] the target is human IGF-1R on cells (human) (UniProt P08069). Briefly: flow cytometry on MCF-7 cells, FITC anti-mouse IgG; x axis is log Ab conc. (nM). (Flow cytometry measures light scatter and fluorescence of single cells or particles in a stream.)
Experiment [2] addresses human IGF-1R(1-902)-His10 (human) (UniProt P08069). Briefly: ELISA on plates coated with rh-IGF-1R, HRPO anti-mouse IgG Fc [a]. (In general: In an ELISA, binding on a coated surface is turned into a signal by an enzyme label.)

Chain of human IGF-1R(1-902)-His10 (human) (P08069 other isoform, or with tags, fused parts or gaps): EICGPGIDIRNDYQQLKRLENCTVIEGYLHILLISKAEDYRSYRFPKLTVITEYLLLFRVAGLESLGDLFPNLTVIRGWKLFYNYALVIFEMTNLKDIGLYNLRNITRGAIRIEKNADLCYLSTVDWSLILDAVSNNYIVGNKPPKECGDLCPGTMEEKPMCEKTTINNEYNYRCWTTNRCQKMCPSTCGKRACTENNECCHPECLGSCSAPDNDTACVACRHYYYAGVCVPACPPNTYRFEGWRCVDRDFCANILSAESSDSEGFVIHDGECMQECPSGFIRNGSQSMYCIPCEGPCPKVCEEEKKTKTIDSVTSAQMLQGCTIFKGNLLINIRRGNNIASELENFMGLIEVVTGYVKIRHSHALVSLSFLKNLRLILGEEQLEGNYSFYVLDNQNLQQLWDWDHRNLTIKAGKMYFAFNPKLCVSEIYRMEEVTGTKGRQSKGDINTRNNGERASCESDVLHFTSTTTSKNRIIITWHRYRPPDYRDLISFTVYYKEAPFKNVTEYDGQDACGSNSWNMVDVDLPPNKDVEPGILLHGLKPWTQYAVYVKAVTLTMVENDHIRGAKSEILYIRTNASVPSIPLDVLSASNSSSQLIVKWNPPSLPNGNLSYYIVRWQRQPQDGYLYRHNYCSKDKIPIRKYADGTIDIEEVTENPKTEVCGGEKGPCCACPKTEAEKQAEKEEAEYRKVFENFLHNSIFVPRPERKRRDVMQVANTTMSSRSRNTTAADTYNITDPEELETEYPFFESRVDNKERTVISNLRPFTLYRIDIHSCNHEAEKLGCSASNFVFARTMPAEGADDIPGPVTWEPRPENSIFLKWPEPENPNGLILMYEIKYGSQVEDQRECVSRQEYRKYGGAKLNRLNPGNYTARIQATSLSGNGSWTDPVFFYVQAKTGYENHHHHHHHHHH
Chain of human IGF-1R on cells (human) (P08069 31-740, chain 1 of 2): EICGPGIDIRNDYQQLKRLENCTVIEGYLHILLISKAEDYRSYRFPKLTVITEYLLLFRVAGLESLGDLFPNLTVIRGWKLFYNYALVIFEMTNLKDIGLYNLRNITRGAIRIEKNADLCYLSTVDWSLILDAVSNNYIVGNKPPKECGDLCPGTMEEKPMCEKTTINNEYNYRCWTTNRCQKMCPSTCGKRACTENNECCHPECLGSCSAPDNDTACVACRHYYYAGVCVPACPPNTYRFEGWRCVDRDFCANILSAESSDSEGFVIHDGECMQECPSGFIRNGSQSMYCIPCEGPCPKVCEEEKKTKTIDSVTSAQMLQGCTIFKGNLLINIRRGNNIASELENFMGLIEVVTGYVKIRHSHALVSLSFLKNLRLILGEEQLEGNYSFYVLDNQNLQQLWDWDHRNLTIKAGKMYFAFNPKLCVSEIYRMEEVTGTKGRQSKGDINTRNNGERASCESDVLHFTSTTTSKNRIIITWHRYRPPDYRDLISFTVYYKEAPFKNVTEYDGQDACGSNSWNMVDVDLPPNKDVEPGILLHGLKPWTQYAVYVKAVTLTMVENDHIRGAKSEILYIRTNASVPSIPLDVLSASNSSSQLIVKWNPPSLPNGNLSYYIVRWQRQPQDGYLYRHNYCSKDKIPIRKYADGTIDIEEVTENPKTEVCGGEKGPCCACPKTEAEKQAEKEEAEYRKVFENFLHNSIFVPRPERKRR
Chain of human IGF-1R on cells (human) (P08069 741-1367, chain 2 of 2): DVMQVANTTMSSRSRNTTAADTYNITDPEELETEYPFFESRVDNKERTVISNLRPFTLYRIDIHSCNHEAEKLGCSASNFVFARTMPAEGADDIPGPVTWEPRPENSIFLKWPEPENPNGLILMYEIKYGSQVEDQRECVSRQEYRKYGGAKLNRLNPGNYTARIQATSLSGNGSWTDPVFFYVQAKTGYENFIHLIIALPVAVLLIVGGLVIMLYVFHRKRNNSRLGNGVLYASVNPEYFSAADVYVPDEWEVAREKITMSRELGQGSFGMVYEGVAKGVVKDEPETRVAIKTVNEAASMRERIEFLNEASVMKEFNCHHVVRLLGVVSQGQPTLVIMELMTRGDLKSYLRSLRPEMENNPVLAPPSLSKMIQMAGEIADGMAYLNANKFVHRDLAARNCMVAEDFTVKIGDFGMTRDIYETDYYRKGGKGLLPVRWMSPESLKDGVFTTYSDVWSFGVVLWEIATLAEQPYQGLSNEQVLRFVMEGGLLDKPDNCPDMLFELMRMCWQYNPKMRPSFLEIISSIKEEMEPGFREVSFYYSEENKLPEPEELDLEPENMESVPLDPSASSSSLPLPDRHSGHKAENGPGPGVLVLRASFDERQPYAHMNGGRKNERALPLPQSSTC

Regarding IR3 (antibody), the values for the concentration for a half-maximal effect (EC50 (read off the curve)) in experiment [1] and in experiment [2] were 5 nM and 0.2 nM, respectively.

As usually defined, the EC50 (read off the curve) is the concentration needed to bring the measured effect to its halfway point. Read a low EC50 (read off the curve) as an effect from little substance.

For the origin of these results see US20070243194A1.
